Measured values from patent publication US20240398899A1 (priority 2021, published 2024).

Assays:
[1] = tested on: ICAM1/CD54; assay: Parkinson biomarker multiplex analysis/ELISA, MPP+ damaged SH-SY5Y; type: cell-based, human; settings: MPP + Iodide (2 mM)
Experimental: After overnight incubation as in the previous examples, cells were treated with recombinant lectin protein having SEQ ID NO: 1 at different concentrations ranging from 0.001 μg/ml-1 μg/ml for 24 h for Parkinson disease and 0.01 μg/ml-25 μg/ml for 24 h for Alzheimer's disease. • Parkinson Disease: After 24 h of pre-treatment with recombinant lectin protein having SEQ ID NO: 1, cells were exposed (MPP+) for another 24 h. Cells treated with MPP+Iodide were included as Control. […] The cells treated with Galantamine were included as positive Control.
The levels of markers were determined by multiplex analysis as: Cell culture supernatants were diluted (1:2) with Calibrator Diluent. 50 μl of standard or sample was added per well. 50 μl of the microparticle cocktail was added to each well of the microplate and covered with a foil plate sealer. The plate was incubated for 2 hours at room temperature on a horizontal orbital microplate shaker. The plate was washed using a magnetic device designed to accommodate a microplate. Washing was done by applying the magnet to the bottom of the microplate, allowing 1 minute before removing the liquid, filling each well with wash buffer (100 μl) and allowing 1 minute before removing the liquid again. 50 μl of diluted Biotin-Antibody Cocktail was added to each well. Covered the plate with a foil plate sealer and incubated for 1 hour at room temperature on the shaker. Repeated the wash step. 50 μl of diluted Streptavidin-PE was added to each well. The plate was securely covered with a foil plate sealer and incubated for 30 minutes at room temperature on the shaker. Repeated the wash step. The microparticles were resuspended by adding 100 μl of Wash Buffer to each well. The plate was incubated for 2 minutes on the shaker and read within 90 minutes using Magpix® multiplex machine. Levels of biomarkers for Parkinson's and Alzheimer's disease were estimated using Magpix® multiplex machine.
For Parkinson's the percent modulation in each sample was determined as follows:
[{Concentration of biomarkers(pg/ml) in SEQ ID NO:1+MPP+Iodide treated cells)−Concentration of biomarkers(pg/ml) in Control cells(MPP+Iodide alone treated)}/Concentration of biomarkers(pg/ml) in Control cells(MPP+Iodide alone treated)]*100

[2] = tested on: SH-SY5Y neuronal cells; assay: Cytoprotective effect against MPP+ iodide induced damage, MTT assay; settings: MPP+ iodide 1 mM
Experimental: The Human Neuronal SH-SY5Y Cells were counted using hemocytometer and plated in 96 well plate at a density of 25,000 cells/well and incubated at 37° C. for 24 h. After incubation, cells were treated with recombinant lectin protein having the sequence of SEQ ID NO: 1 at concentrations ranging from 0.001 μg/ml 50 μg/ml for 24 h. After 24 h of treatment, cells were exposed to neurotoxin (MPP+ iodide, 1 mM) for 24 h. Cells treated with MPP+ iodide alone were included as negative control. Untreated cells were included as control. […] After treatment, the cytoprotective effect of SEQ ID NO: 1 on cell viability was assessed by 3-(4,5-dimethythiazol-2-yl)-2,5-diphenyl tetrazolium bromide (MTT) assay: The plate was taken out and 20 μl of 5 mg/ml of MTT 3-(4,5-dimethythiazol-2-yl)-2,5-diphenyl tetrazolium bromide solution was added to all the wells. The SH-SY5Y cells were incubated for 3 h at 37° C. The supernatant was aspirated and 150 μl of DMSO was added to each well to dissolve formazan crystals. The absorbance of each well was read at 540 nm using Synergy HT micro plate reader. The protective effect of the SEQ ID NO: 1 on survival of SH-SY5Y cells against MPP+ iodide induced damage was determined as: The viability of cells was determined as:
Where, the percentage cytotoxicity corresponding to each treatment was calculated as follows:
[formula] • X=Absorbance of cells treated with MPP+ iodide/recombinant lectin having SEQ ID NO: 1+MPP+Iodide • R=Absorbance of Control cells (Untreated) • Percentage protection was calculated as:
[(Absorbance of SEQ ID NO:1+MPP+Iodide)−(Absorbance of MPP+Iodide)/(Absorbance of Untreated)−(Absorbance of MPP+Iodide alone)]*100

B1: SEQ ID NO: 1: variant of the S. rolfsii lectin amino acid sequence (reported as Rec-2 in WO2010/095143) (protein)
chain: TYKITVRVYQTNPDAFFHPVEKTVWKYANGGTWTITDDQHVLTMGGSGTSGTLRFHADNGESFTATFGVHNYKRWCDIVTNLAADETGMVINQQYYSQKNREEARERQLSNYQVKNAKGRNFQIVYTEAEGNDLHANLIIG
% Change of Biomarkers markers (with respect to Control) ICAM1/CD54 ([1]; 0.001 μg/mL): 0% | % Change of Biomarkers markers (with respect to Control) ICAM1/CD54 ([1]; 0.01 μg/mL): −6.2% | % Change of Biomarkers markers (with respect to Control) ICAM1/CD54 ([1]; 0.05 μg/mL): −28.1% | % Change of Biomarkers markers (with respect to Control) ICAM1/CD54 ([1]; 0.1 μg/mL): −36.3% | % Change of Biomarkers markers (with respect to Control) ICAM1/CD54 ([1]; 1 μg/mL): −41.3% | Percentage Protection ([2]; 0.001 μg/mL): 58.6% | Percentage Viability (w.r.t control) ([2]; 0.001 μg/mL): 85.1% | Percentage cytotoxicity ([2]; 0.001 μg/mL): 14.9% | Percentage Protection ([2]; 0.01 μg/mL): 61.8% | Percentage Viability (w.r.t control) ([2]; 0.01 μg/mL): 86.3% | Percentage cytotoxicity ([2]; 0.01 μg/mL): 13.7% | Percentage Protection ([2]; 0.05 μg/mL): 68.8% | Percentage Viability (w.r.t control) ([2]; 0.05 μg/mL): 88.8% | Percentage cytotoxicity ([2]; 0.05 μg/mL): 11.2% | Percentage Protection ([2]; 0.1 μg/mL): 52.6% | Percentage Viability (w.r.t control) ([2]; 0.1 μg/mL): 83% | Percentage cytotoxicity ([2]; 0.1 μg/mL): 17% | Percentage Protection ([2]; 1 μg/mL): 40.2% | Percentage Viability (w.r.t control) ([2]; 1 μg/mL): 78.8% | Percentage cytotoxicity ([2]; 1 μg/mL): 21.2% | Percentage Protection ([2]; 5 μg/mL): 49.6% | Percentage Viability (w.r.t control) ([2]; 5 μg/mL): 82.1% | Percentage cytotoxicity ([2]; 5 μg/mL): 17.9% | Percentage Protection ([2]; 10 μg/mL): 85.6% | Percentage Viability (w.r.t control) ([2]; 10 μg/mL): 94.9% | Percentage cytotoxicity ([2]; 10 μg/mL): 5.1% | Percentage Protection ([2]; 25 μg/mL): 78.6% | Percentage Viability (w.r.t control) ([2]; 25 μg/mL): 92.4% | Percentage cytotoxicity ([2]; 25 μg/mL): 7.6% | Percentage Protection ([2]; 50 μg/mL): 62.1% | Percentage Viability (w.r.t control) ([2]; 50 μg/mL): 86.6% | Percentage cytotoxicity ([2]; 50 μg/mL): 13.4%
